Measurements as given in paper PMC7782713, “Structural basis of Naa20 activity towards a canonical NatB substrate” (Communications Biology, 2021).
Each block holds one molecule with its values, some of them ahead of it. No end group written: not given here. CoA = coenzyme A

How the values were obtained:
[1] = target: Chaetomium thermophilum Naa20 residues 1-166 (predicted GNAT fold) (Chaetomium thermophilum); test: ITC; CtNaa20_(1-166) 25-35 uM in the cell, CtNaa25 250-400 uM in the syringe, 20 °C, buffer G (20 mM HEPES pH 7.5, 200 mM NaCl), single-site binding model, triplicates
[2] = target: Chaetomium thermophilum Naa25, auxiliary subunit of NatB, full length (Chaetomium thermophilum); test: SEC-MALS; Superdex 200 10/300 in buffer G (20 mM HEPES pH 7.5, 200 mM NaCl); CtNatB (0.12 mg, co-expressed and purified as a complex), CtNaa25 (0.13 mg) and CtNaa20 (0.1 mg) injected one after the other
CtNaa20 [3] = target: T1, CtNaa20 (Thermochaetoides thermophila, UniProt G0SGG4); test: nanoDSF thermal shift; assay type: binding; settings: varying ligand excess; buffer G pH 7.5
T1 construct: gene CTHT_0066240; full length, C-terminal His6 (pET21d), E. coli Rosetta II (DE3); residues 2-190 built in the crystal structure

CtNatB = target: T2, CtNatB (Thermochaetoides thermophila, UniProt G0SGG4); test: nanoDSF thermal shift; assay type: binding; settings: 1/64 protein/ligand; buffer G pH 7.5
T2 construct: gene CTHT_0066240; co-expressed in E. coli Rosetta II (DE3); CtNaa20 with C-terminal His6, CtNaa25 with TEV-cleavable N-terminal His6; with N-alpha-acetyltransferase 25 (N-terminal acetyltransferase B complex auxiliary subunit NAA25)

[4] = target: Chaetomium thermophilum Naa20, catalytic subunit of NatB, full length (Chaetomium thermophilum)
[5] = target: Chaetomium thermophilum NatB complex (CtNaa25 with CtNaa20) (Chaetomium thermophilum)
[6] = target: T3, Chaetomium thermophilum NatB complex (CtNaa25 with CtNaa20) (Chaetomium thermophilum); test: cell-based or functional assay
T3 chain: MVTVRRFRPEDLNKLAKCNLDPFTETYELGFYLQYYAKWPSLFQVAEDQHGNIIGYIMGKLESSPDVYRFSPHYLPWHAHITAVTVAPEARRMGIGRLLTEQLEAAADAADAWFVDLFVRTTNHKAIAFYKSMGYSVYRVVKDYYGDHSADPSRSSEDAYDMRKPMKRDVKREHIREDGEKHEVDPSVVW

[7] = target: T3, Chaetomium thermophilum NatB complex …; test: enzyme inhibition kinetics (acetylation microplate assay); 500 nM enzyme; mode of inhibition and inhibitor constant of CoA-Ac-MDEL in the acetylation of MDEL; competitive inhibitor; triplicates; settings: both partners purified
CtNaa20 [8] = target: T4, CtNaa20 (Chaetomium thermophilum, UniProt G0SGG4 1-235); test: EMSA; 5-20 uM protein, 5 uM RNA; 20 mM Tris pH 8, 200 mM NaCl, 10 mM MgCl2, 10 mM KCl, 20% glycerol, 20 C, 30 min; 0.8% agarose gel in 0.5x TB; settings: protein: recombinant; tags: C-terminal His6
T4 sequence: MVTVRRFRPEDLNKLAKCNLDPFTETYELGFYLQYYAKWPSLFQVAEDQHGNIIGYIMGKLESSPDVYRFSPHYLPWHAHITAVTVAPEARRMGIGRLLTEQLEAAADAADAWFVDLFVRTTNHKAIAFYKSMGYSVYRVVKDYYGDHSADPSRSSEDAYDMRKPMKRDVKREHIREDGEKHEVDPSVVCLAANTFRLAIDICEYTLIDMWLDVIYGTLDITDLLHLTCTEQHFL

Kd [1]: 17.8 nM | dH [1]: 5.4 kcal/mol | stoichiometry N [1]: 1
Molecule: Chaetomium thermophilum Naa25, auxiliary subunit of NatB, full length (natural protein)

stoichiometry N [2]: 1
Molecule: Chaetomium thermophilum Naa20, catalytic subunit of NatB, full length (enzyme)

Tm without to with ligand (CtNatB): 58 to 62 °C
Molecule: CC(=O)SCCNC(=O)CCNC(=O)[C@H](O)C(C)(C)COP(=O)(O)OP(=O)(O)OC[C@H]1O[C@@H](n2cnc3c(N)ncnc32)[C@H](O)[C@@H]1OP(=O)(O)O [AcCoA]
Tm (CtNaa20 [3]): Binding of both ligands to CtNatB and CtNaa20 is indicated by protein stabilization

Km for MDEL in the acetylation assay (constant AcCoA, varying MDEL) [4]: 4.4 mM | Km for MDEL in the acetylation assay (constant AcCoA, varying MDEL) [5]: 232 µM
Molecule: MDEL peptide (canonical NatB substrate)

IC50 of the inhibition of acetylation by CtNaa20 alone [4]: 6.5 µM | half-maximum inhibitor concentration (IC50) of the NatB mediated acetylation of MDEL [6]: 1.56 µM | Ki [7]: 410 ± 140 nM
B1: CoA-Ac-MDEL bisubstrate analog (peptide MDEL joined to coenzyme A through an acetyl bridge) (peptide)
peptide: {CoA-Ac}-MDEL
notes: peptide part of the bisubstrate analog, the canonical NatB substrate MDEL; A tetrapeptide conjugate of 1314 Da; also called MDEL (peptide part M1pD2pE3pL4p); source: synthetic peptide (solid phase), bromo-acetylated and coupled to coenzyme A, purified by reverse phase HPLC

B2: CtES27 fragment (tip of expansion segment 27) (structured_RNA)
RNA: GGGCCUCUAGCCGGGCAACCGGCCGGCGGCUC
binding result (CtNaa20 [8]): no binding
